Experimental data: patent publication US20190175754A1 (UNIVERSITY OF CINCINNATI, published 2019)
Values belong to the molecule of their own block, whether it stands above or below them.

What was measured:
[1] = target: FLT3 on the surface of MONOMAC-6 cells (FLT3-overexpressing AML cell line) (human) (UniProt P36888); test: flow cytometry of Cy5.5+ MONOMAC-6 cells, 50 nM Cy5.5-conjugated nanoparticles, 1 h; negative control conjugate (background uptake)
[2] = target: T1, FLT3 on the surface of MONOMAC-6 cells (FLT3-overexpressing AML cell line) (human, UniProt P36888 27-993); test: flow cytometry of Cy5.5+ MONOMAC-6 cells, 50 nM Cy5.5-conjugated nanoparticles, 1 h
T1 construct: whole, on cells; Endogenous receptor on a cell line; also called FMS-like tyrosine kinase 3; FLT3 receptor
T1 sequence (looked up): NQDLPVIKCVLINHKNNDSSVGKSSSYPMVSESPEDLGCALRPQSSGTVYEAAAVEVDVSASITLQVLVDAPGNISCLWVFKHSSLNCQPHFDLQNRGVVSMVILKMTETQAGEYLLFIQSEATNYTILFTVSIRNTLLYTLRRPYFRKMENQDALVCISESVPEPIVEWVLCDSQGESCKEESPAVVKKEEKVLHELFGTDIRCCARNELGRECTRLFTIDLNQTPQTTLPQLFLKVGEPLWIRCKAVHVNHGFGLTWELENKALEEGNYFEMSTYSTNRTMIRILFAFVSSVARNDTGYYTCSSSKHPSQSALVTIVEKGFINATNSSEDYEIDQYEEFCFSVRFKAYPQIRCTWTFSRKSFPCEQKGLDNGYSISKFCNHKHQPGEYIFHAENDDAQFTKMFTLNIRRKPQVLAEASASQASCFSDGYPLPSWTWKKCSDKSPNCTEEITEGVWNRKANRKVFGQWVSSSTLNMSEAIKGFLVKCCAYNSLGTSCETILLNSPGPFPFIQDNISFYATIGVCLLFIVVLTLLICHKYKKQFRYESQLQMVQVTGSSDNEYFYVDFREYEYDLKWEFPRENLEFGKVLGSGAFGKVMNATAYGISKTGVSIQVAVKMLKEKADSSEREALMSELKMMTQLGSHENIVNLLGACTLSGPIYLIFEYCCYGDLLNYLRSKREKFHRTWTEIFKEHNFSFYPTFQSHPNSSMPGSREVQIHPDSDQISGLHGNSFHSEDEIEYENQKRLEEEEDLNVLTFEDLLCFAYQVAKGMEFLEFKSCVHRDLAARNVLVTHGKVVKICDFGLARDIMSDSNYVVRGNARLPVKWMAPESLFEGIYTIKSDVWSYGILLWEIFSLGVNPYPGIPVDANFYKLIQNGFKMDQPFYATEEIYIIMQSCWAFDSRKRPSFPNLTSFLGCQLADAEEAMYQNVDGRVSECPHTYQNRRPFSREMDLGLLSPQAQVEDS
From the text: FIG. 2(A) G7-NH₂ PAMAM dendrimers were first conjugated with the near-infrared dye Cy5.5 using an N-hydroxysuccinimide ester linker sulfo-SMCC. Next, the fluorescently-tagged G7-NH₂ (G7-Cy5.5) was conjugated to human recombinant FLT3L (i.e., the soluble FLT3L form with 155 amino acids; ProSpec-Tany Technogene Ltd., East Brunswick, N.J.) at a 1:2 ratio using the heterofunctional linker sulfosuccinimidyl 4-((N-maleimidomethyl) cyclohexane-1-carboxylate) (sulfo-SMCC), resulting in the G7-FLT3L conjugates. FIG. 2(B) MONOMAC-6 cells were treated with Cy5.5-conjugated G7-FLT3L or G7-H2B nanoparticles for 24 hrs at the indicated doses. The proportion of Cy5.5⁺ cells were detected through flow cytometry analysis. FIG. 2(C) MONOMAC-6 and U937 cells were treated with 50 nM Cy5.5-conjugated G7-FLT3L or G7-H2B nanoparticles for 1 hr. The proportion of Cy5.5⁺ cells were detected through flow cytometry analysis. FIG. 2(D) MONOMAC-6 cells transfected with MSCV-PIG-miR-150 (miR-150-PIG) or MSCV-PIG (PIG) were treated with 50 nM Cy5.5-conjugated G7-FLT3L or G7-H2B nanoparticles for 1 hr. The proportion of Cy5.5⁺ cells were detected through flow cytometry analysis. Each experiment was repeated independently for at least three times. Average levels of at least three replicates are shown. […]

[3] = target: T1, FLT3 on the surface of MONOMAC-6 cells …; test: flow cytometry uptake by FLT3-overexpressing AML cells, against control protein conjugated nanoparticles
Method: FIG. 2(B) MONOMAC-6 cells were treated with Cy5.5-conjugated G7-FLT3L or G7-H2B nanoparticles for 24 hrs at the indicated doses. The proportion of Cy5.5⁺ cells were detected through flow cytometry analysis. FIG. 2(C) MONOMAC-6 and U937 cells were treated with 50 nM Cy5.5-conjugated G7-FLT3L or G7-H2B nanoparticles for 1 hr. The proportion of Cy5.5⁺ cells were detected through flow cytometry analysis. FIG. 2(D) MONOMAC-6 cells transfected with MSCV-PIG-miR-150 (miR-150-PIG) or MSCV-PIG (PIG) were treated with 50 nM Cy5.5-conjugated G7-FLT3L or G7-H2B nanoparticles for 1 hr. The proportion of Cy5.5⁺ cells were detected through flow cytometry analysis. Each experiment was repeated independently for at least three times. Average levels of at least three replicates are shown. FIG. 2(E) Cell viability (left panel) and apoptosis (right panel) of MONOMAC-6 cells treated with PBS (Ctrl), 50 nM G7-FLT3L or G7-H2B nanoparticles for 48 hr. *, P<0.05; **, P<0.01. […]

[4] = target: T1, FLT3 on the surface of MONOMAC-6 cells …; test: flow cytometry of Cy5.5+ MONOMAC-6 cells after 24 h treatment with Cy5.5-conjugated nanoparticles, compared with G7-FLT3L

- uptake ratio (proportion of Cy5.5+ cells) [1]: 5.9%
Molecule: G7-H2B dendrimers (Cy5.5-labelled G7 PAMAM dendrimer conjugated to histone H2B, negative control)

- uptake ratio (proportion of Cy5.5+ cells) [2]: 23.6%
- fold specificity and efficiency in targeting and uptake against nanoparticles conjugated with control proteins [3]: 4 times
B1: G7-FLT3L dendrimers (Cy5.5-labelled G7 PAMAM dendrimer conjugated to human recombinant soluble FLT3L) (ligand, UniProt P49771 27-184, looked up)
chain: TQDCSFQHSPISSDFAVKIRELSDYLLQDYPVTVASNLQDEELCGGLWRLVLAQRWMERLKTVAGSKMQGLLERVNTEIHFVTKCAFQPPPSCLRFVQTNISRLLQETSEQLVALKPWITRQNFSRCLELQCQPDSSTLPPPWSPRPLEATAPTAPQP
modifications: conjugated through the sulfo-SMCC linker to a Cy5.5-labelled G7 PAMAM dendrimer (approximately 0.5-1 FLT3L molecules per dendrimer); attachment residue not stated
notes: extracellular domain; The protein is carried on a G7 PAMAM dendrimer labelled with Cy5.5; also called G7-FLT3L nanoparticles; G7-FLT3L conjugates

- binding result [4]: binds
B2: G7-Flt3L dendrimers (Cy5.5-labelled G7 PAMAM dendrimer conjugated to the synthetic 74-amino acid mouse Flt3L peptide) (peptide)
peptide: SSNFKVKFRELTDHLLKDYPVTVAVNLQDEKHCKALWSLFLAQRWIEQLKTVAGSKMQTLLEDVNTEIHFVTSC
modifications: conjugated to a Cy5.5-labelled G7 PAMAM dendrimer; attachment residue not stated
notes: also called G7-Flt3L nanoparticles; engineered mouse Flt3L peptide
